In publication PMC2844805 one finds Km, kcat and kcat/Km data, which are given here for four molecules.

For data set [1], the system named is O=P(O)(O)OC[C@@H](O)[C@H]1O[C@@H](OP(=O)(O)O)[C@@H](O)[C@@H](O)[C@@H]1O. The data set is described as follows: steady-state kinetics. Type of data set: biochemical, Bordetella bronchiseptica. Conditions: Mg2+; pH 7.5; 25.0 °C.
For data set [2], the system named is O=P(O)(O)OC[C@@H](O)[C@H]1O[C@H](OP(=O)(O)O)[C@@H](O)[C@@H](O)[C@@H]1O. The data set is described as follows: steady-state kinetics. Type of data set: biochemical, Bordetella bronchiseptica. The conditions noted are these: Mg2+; pH 7.5; 25.0 °C.
Substrate in data set [3]: O=P(O)(O)OC[C@@H](O)[C@H]1O[C@@H](OP(=O)(O)O)[C@@H](O)[C@@H](O)[C@@H]1O
The data set is described as follows: steady-state kinetics. Format: biochemical, Bacteroides thetaiotaomicron. The conditions noted are these: Mg2+; pH 7.5; 25.0 °C.

Substrate in data set [4]: O=P(O)(O)OC[C@@H](O)[C@H]1O[C@H](OP(=O)(O)O)[C@@H](O)[C@@H](O)[C@@H]1O
Description: steady-state kinetics. Format: biochemical, Bacteroides thetaiotaomicron. The conditions noted are these: Mg2+; pH 7.5; 25.0 °C.

Substrate in data set [5]: O=P(O)(O)OC[C@@H](O)[C@H]1O[C@@H](OP(=O)(O)O)[C@@H](O)[C@@H](O)[C@@H]1O
Description: purified protein. Format: biochemical, Escherichia coli. Conditions: Mg2+ C([…])phosphate selectively removed; pH 7.5; 25.0 °C.

Substrate in data set [6]: O=P(O)(O)OC[C@@H](O)[C@H]1O[C@H](OP(=O)(O)O)[C@@H](O)[C@@H](O)[C@@H]1O
Description: purified protein. Type of data set: biochemical, Escherichia coli. Conditions: Mg2+ C([…])phosphate selectively removed; pH 7.5; 25.0 °C.

Substrate in data set [7]: O=P(O)(O)OC[C@@H](O)[C@H]1O[C@@H](OP(=O)(O)O)[C@@H](O)[C@@H](O)[C@@H]1O
Description: steady-state kinetics. Format: biochemical, Mesorhizobium japonicum. Conditions: Mg2+; pH 7.5; 25.0 °C.

Substrate in data set [8]: O=P(O)(O)OC[C@@H](O)[C@H]1O[C@H](OP(=O)(O)O)[C@@H](O)[C@@H](O)[C@@H]1O
Description: steady-state kinetics. Type of data set: biochemical, Mesorhizobium japonicum. The conditions noted are these: Mg2+; pH 7.5; 25.0 °C.

On to “D-glycero-D-manno-heptose-1β,7-bisphosphate phosphatase (GmhB) (Bordetella bronchiseptica RB50)”, for which, in data set [1], the Michaelis-Menten constant (Km) worked out at 6.9 ± 0.5 µM, the kcat came out at 22 ± 0.5 s⁻¹ and the kcat/Km was 3.2e+06 M⁻¹ s⁻¹. Moreover, in data set [2], the Km was determined as 280 ± 30 µM, the catalytic constant (kcat) amounted to 5.9 ± 0.2 s⁻¹ and the kcat/Km came out at 21000 M⁻¹ s⁻¹.

B1: D-glycero-D-manno-heptose-1,7-bisphosphate phosphatase (GmhB) (Bacteroides thetaiotaomicron VPI-5482) (protein)
chain: MRLQDIDVTGFETLLLDRDGVVNRLRPDDYVKKWEEFEFLPGVLEILKAWNTHFKYIFIVTNQRGVGKEIMSEEDLKHIHERMISEVKNYGGRIDRIYYCTALTDSDINRKPGIGMFLQILRDYPDIDKAKCLMIGDSDSDIKFAKNCGIVGIKVI
Turning to B1, in “steady-state kinetics [3]”, the Km came to 86 ± 1 µM, the kcat came out at 13 ± 1 s⁻¹ and the catalytic efficiency (kcat/Km) was 150000 M⁻¹ s⁻¹. Besides, in “steady-state kinetics [4]”, the Km amounted to 33 ± 1 µM, the catalytic constant (kcat) came out at 29 ± 1 s⁻¹ and the kcat/Km worked out at 880000 M⁻¹ s⁻¹.

B2: D-glycero-D-manno-heptose-1,7-bisphosphate phosphatase (GmhB) (Escherichia coli K-12) (protein)
chain: MAKSVPAIFLDRDGTINVDHGYVHEIDNFEFIDGVIDAMRELKKMGFALVVVTNQSGIARGKFTEAQFETLTEWMDWSLADRDVDLDGIYYCPHHPQGSVEEFRQVCDCRKPHPGMLLSARDYLHIDMAASYMVGDKLEDMQAAVAANVGTKVLVRTGKPITPEAENAADWVLNSLADLPQAIKKQQKPAQ
As for B2, in “purified protein [5]”, the Km came out at 5.0 ± 0.1 µM, the turnover number (kcat) came out at 35.7 ± 0.2 s⁻¹ and the specificity constant (kcat/Km) was 7e+06 M⁻¹ s⁻¹. Moreover, in the data set “purified protein [6]”, the Michaelis constant (Km) was 67 ± 1 µM, the catalytic constant (kcat) came out at 4.6 ± 0.1 s⁻¹ and the kcat/Km is 70000 M⁻¹ s⁻¹.

B3: D-glycero-D-manno-heptose-1,7-bisphosphate phosphatase (GmhB) (Mesorhizobium japonicum MAFF 303099) (protein)
chain: MADKTGTPHPLTEPGVWIERIGGRVFPPHLPALFLDRDGTINVDTDYPSDPAEIVLRPQMLPAIATANRAGIPVVVVTNQSGIARGYFGWSAFAAVNGRVLELLREEGVFVDMVLACAYHEAGVGPLAIPDHPMRKPNPGMLVEAGKRLALDLQRSLIVGDKLADMQAGKRAGLAQGWLVDGEAAVQPGFAIRPLRDSSELGDLLAAIETLGRDNRS
As to B3, in “steady-state kinetics [7]”, the Km worked out at 13 ± 0.2 µM, the catalytic constant (kcat) was found to be 18 ± 0.2 s⁻¹ and the kcat/Km turned out to be 1.4e+06 M⁻¹ s⁻¹. In “steady-state kinetics [8]”, the Km was 58 ± 1 µM, the kcat is 4.4 ± 0.1 s⁻¹ and the kcat/Km was found to be 76000 M⁻¹ s⁻¹.
